Results taken from article PMC6277039 (Biochemical and biophysical research communications, 2018).
Several values for one entry are separate records, joined by “and”; a condition that tells them apart may be missing. Equal entries are not always repeated.

Legend:
Experiment in all cases: ITC
HSPA1A wild-type (WT) = HSPA1A wild-type (WT) (human, UniProt P0DMV8 1-641)
HSPA1A K71A = HSPA1A K71A (human, UniProt P0DMV8 1-641, K71A)
HSPA1A S16P = HSPA1A S16P (human, UniProt P0DMV8 1-641, S16P)
HSPA1A S16Y = HSPA1A S16Y (human, UniProt P0DMV8 1-641, S16Y)
HSPA1A R36C = HSPA1A R36C (human, UniProt P0DMV8 1-641, R36C)
HSPA1A I74T = HSPA1A I74T (human, UniProt P0DMV8 1-641, I74T)
HSPA1A I480N = HSPA1A I480N (human, UniProt P0DMV8 1-641, I480N)
HSPA1A F592S = HSPA1A F592S (human, UniProt P0DMV8 1-641, F592S)
Sequence of HSPA1A F592S (P0DMV8 whole entry F592S): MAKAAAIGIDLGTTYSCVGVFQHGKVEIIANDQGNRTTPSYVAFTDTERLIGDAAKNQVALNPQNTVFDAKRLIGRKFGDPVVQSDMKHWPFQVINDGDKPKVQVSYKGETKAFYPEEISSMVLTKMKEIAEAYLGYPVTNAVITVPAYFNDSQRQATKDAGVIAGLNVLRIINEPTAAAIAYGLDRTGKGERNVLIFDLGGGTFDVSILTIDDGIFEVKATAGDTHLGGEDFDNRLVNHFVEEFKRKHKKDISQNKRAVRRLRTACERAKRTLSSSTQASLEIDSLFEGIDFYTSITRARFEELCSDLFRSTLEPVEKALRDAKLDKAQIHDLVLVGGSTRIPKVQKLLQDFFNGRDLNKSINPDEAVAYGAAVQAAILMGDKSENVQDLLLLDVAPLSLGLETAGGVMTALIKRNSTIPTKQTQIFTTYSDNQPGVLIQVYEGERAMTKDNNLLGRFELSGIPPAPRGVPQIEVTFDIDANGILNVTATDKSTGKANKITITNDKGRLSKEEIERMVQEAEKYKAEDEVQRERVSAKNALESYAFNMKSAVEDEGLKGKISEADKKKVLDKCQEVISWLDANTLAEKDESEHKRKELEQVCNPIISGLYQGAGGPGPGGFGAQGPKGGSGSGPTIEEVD

Sequence of HSPA1A I74T (P0DMV8 whole entry I74T): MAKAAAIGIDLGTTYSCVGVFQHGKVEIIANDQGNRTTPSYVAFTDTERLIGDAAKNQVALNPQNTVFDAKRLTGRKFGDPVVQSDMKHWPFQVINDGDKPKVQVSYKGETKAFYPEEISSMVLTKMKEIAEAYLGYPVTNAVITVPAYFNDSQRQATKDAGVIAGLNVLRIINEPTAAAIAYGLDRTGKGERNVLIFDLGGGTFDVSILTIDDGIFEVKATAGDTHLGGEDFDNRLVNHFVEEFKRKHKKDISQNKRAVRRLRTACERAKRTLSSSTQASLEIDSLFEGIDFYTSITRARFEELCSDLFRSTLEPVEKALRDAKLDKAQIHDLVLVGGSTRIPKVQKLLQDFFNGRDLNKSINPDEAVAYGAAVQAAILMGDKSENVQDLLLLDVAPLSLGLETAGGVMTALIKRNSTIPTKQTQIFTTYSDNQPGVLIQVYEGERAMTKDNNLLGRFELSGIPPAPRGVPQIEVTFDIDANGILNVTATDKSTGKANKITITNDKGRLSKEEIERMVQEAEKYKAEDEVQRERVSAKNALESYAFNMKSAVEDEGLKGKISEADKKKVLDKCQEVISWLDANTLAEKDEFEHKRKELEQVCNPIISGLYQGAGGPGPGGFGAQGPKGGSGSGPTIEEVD
Sequence of HSPA1A wild-type (WT) (P0DMV8 whole entry): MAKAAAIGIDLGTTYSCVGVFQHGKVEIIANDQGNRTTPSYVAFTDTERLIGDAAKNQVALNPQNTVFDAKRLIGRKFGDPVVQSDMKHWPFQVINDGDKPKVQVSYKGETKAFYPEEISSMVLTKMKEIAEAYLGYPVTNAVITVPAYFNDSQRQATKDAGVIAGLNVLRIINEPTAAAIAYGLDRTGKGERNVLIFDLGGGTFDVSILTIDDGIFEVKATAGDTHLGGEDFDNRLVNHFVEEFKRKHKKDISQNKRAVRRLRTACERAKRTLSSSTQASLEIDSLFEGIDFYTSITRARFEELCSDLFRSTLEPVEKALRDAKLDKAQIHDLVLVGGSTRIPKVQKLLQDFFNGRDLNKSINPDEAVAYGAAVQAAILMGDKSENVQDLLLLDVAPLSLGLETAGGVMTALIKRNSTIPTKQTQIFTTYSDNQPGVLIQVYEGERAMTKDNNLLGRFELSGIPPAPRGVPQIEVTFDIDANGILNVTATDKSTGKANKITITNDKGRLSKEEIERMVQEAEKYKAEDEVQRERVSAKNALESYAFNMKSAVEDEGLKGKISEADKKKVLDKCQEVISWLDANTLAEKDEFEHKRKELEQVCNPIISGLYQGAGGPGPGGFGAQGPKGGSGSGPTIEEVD
Sequence of HSPA1A K71A (P0DMV8 whole entry K71A): as the sequence (P0DMV8 whole entry I74T) above, with K71A, T74I counted along it
Sequence of HSPA1A S16P (P0DMV8 whole entry S16P): as the sequence (P0DMV8 whole entry I74T) above, with S16P, T74I counted along it
Sequence of HSPA1A R36C (P0DMV8 whole entry R36C): as the sequence (P0DMV8 whole entry I74T) above, with R36C, T74I counted along it
Sequence of HSPA1A S16Y (P0DMV8 whole entry S16Y): as the sequence (P0DMV8 whole entry I74T) above, with S16Y, T74I counted along it
Sequence of HSPA1A I480N (P0DMV8 whole entry I480N): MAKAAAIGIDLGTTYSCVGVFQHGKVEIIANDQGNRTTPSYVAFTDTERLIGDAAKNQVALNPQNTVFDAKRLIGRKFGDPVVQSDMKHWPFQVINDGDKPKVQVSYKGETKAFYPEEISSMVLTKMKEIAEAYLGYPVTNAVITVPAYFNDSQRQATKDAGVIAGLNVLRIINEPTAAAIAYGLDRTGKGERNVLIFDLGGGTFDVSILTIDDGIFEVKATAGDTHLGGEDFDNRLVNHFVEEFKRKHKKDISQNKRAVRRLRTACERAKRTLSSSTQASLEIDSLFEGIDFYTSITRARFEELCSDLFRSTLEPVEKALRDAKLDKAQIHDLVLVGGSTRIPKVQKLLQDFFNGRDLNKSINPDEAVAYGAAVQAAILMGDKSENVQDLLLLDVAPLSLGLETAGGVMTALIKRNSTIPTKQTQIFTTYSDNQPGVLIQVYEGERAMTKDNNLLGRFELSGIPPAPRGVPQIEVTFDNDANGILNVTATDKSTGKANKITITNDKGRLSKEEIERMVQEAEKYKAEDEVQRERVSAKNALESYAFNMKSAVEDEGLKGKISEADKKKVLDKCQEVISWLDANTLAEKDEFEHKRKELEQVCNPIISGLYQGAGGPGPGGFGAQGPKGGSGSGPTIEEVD

NIVAKKK [protein substrate (peptide NIVAKKK)] was tested, and the Kd (HSPA1A wild-type (WT)) was 335 nM and 529 nM and 364 nM, the dH (HSPA1A wild-type (WT)) was -6.18 kcal/mol and -4.72 kcal/mol and -4.79 kcal/mol and the “stoichiometry N” value (HSPA1A wild-type (WT)) was 0.993 and 1 and 1.02. For the same binder, the Kd (HSPA1A K71A) was 528 nM and 615 nM and 635 nM, the dH (HSPA1A K71A) was -2.77 kcal/mol and -3.32 kcal/mol and -2.86 kcal/mol and the “stoichiometry N” value (HSPA1A K71A) was 0.982 and 1 and 0.989. For the same binder, the Kd (HSPA1A S16P) was 738 nM and 679 nM and 599 nM, the dH (HSPA1A S16P) was -2.98 kcal/mol and -3.21 kcal/mol and -3.22 kcal/mol and the “stoichiometry N” value (HSPA1A S16P) was 0.991 and 1 and 1.03. For the same binder, the Kd (HSPA1A S16Y) was 335 nM and 331 nM and 315 nM, the dH (HSPA1A S16Y) was -10.2 kcal/mol and -9.96 kcal/mol and -9.74 kcal/mol and the “stoichiometry N” value (HSPA1A S16Y) was 1.04 and 1.02 and 1.01. The Kd (HSPA1A R36C) was 576 nM and 472 nM and 509 nM, the dH (HSPA1A R36C) was -3.75 kcal/mol and -3.81 kcal/mol and -3.88 kcal/mol and the “stoichiometry N” value (HSPA1A R36C) was 1.03 and 1 and 0.984. For the same binder, the Kd (HSPA1A I74T) was 999 nM and 995 nM and 935 nM, the dH (HSPA1A I74T) was -4.52 kcal/mol and -4.7 kcal/mol and -4.85 kcal/mol and the “stoichiometry N” value (HSPA1A I74T) was 0.998 and 0.985 and 1.01. The Kd (HSPA1A I480N) was 710 nM and 661 nM and 697 nM, the dH (HSPA1A I480N) was -4.43 kcal/mol and -5.06 kcal/mol and -4.72 kcal/mol and the “stoichiometry N” value (HSPA1A I480N) was 1.02 (2×) and 1.01. The Kd (HSPA1A F592S) was 559 nM and 500 nM and 374 nM, the dH (HSPA1A F592S) was -3.84 kcal/mol and -4.67 kcal/mol and -3.66 kcal/mol and the “stoichiometry N” value (HSPA1A F592S) was 1.07 and 1.04 and 1.06.
